Data from patent US20190016796A1.

Experiments:
[1] = target: murine interleukin-2 (mouse) (UniProt P04351); assay: SPR, MAB602 amine-coupled to GLM chip, mouse IL-2 as analyte at concentrations >1 nM
[2] = target: human interleukin-2 (human) (UniProt P60568); assay: SPR, antibody amine-coupled to GLM chip, hIL-2 as analyte (100 nM, three-fold dilutions)
[3] = target: human interleukin-2 (human) (UniProt P60568); assay: sandwich ELISA, hIL-2 captured on coated 5344, biotinylated MAB602 as detector, no competitor (well H11)

Sequence of human interleukin-2 (human) (P60568 21-153 limits assumed): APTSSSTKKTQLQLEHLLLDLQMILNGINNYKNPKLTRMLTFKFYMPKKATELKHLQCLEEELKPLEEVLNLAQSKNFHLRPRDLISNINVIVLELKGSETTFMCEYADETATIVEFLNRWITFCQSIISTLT
Sequence of murine interleukin-2 (mouse) (P04351 21-169 limits assumed): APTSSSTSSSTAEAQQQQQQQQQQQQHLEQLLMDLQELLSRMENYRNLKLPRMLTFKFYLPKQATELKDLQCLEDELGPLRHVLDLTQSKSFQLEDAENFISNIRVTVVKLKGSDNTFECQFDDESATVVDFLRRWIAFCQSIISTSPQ

response units (RU) [1]: > 10 RU
Kd [2]: 9.7 nM
koff [2]: 0.000494 s⁻¹
absorbance (OD450) [3]: 1.1 OD450
B1: commercially available anti-human IL-2 monoclonal antibody MAB602 (antibody, from another filing, V domains shown)
VH: EVQLQESGPGLVAPSQSLSITCTVSGFSLTNYDISWIRQPPGKGLEWLGVIWTGGGTNYNSGFMSRLSITKDNSKSQVFLKMNSLQTDDTAIYYCVRQGRTPYWGQGTLVTVSA
VL: DIQVTQSPSSLSVSLGDRVTITCKASKDIYNRLAWYQQKPGNAPRLLISGATSLETGVPSRFSGSGSGKDYTLTITSLQTEDVATYYCQQFWGTPYTFGGGTKLEIKR
